The results in this text go back to patent publication US12624096B2, “Anti-tau antibodies and methods of use thereof” (GTInvent Limited, priority 2020, dated 2026).

In one assay the target is dGA (Homo sapiens, UniProt P10636). Description: Biacore X100 SPR, scAb captured via anti-HuCk, dGA as analyte. The assay is classed as binding. Particulars: dissociation rate. Here is the method: (§1) Surface plasmon resonance (SPR) is widely regarded as the gold standard for real time measurement of protein-protein interactions such as antibody binding. All SPR experiments were carried out using a Biacore X100 machine and HBS EP+ running buffer (GE Healthcare). A ‘capture’ method was followed for affinity measurements, where an anti-human constant kappa chain (HuCk) antibody was conjugated to the surface of a CM5 sensor chip using an amine coupling kit and scAb molecules were immobilised via their HuCk domain. Amine coupling is a very common approach for immobilising the ligand to the chip surface. The chip surface has a dextran matrix derivatised with carboxyl groups, which after activation with N-hydroxysuccinimide (NHS) and 1-ethyl-3-(3-dimethylaminopropyl) carbodiimide (EDC), form reactive succinimide esters which allows the covalent capturing of the ligand via any available primary amine groups (e.g. Lysine) on the ligand (in this case anti-HuCk antibody). The capture antibody was diluted 1/100 in 10 mM Sodium acetate buffer pH 5.0 and passed over the activated chip surface for a period of at least 420 s. Final ligand immobilisation levels over 12,000 RU were deemed to be satisfactory.
Chain of dGA (P10636 614-707): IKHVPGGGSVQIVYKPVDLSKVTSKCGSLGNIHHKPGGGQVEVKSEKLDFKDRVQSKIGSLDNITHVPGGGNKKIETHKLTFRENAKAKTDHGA
(§2) Following immobilisation, the level of each scAb to be captured was identified using the standard SPR equation with a theoretical RMax of 100 RU. Analyte MW refers to the molecular weight of hT40 or dGA/dGAE molecules, while ligand MW refers to the molecular weight of the scAbs tested. RL is the desired capture level and S refers to the stoichiometric ratio:
(§3) The scAb to be tested was added only to flow cell 2 so that flow cell 1 could act as a control to subtract any interaction with the analyte and the chip surface. Both single and multi-cycle runs were utilised using wizards developed in the Biacore X100 control software which are both accepted methods of kinetic analysis (Karlsson, R., et al. Analyzing a kinetic titration series using affinity biosensors (2006) Analytical Biochemistry 349:136-47). The multi-cycle protocol was as follows-Three start-up cycles composed of an initial capture, to the desired level, of the scAb to be tested was performed followed by a 30 s injection of glycine buffer pH 2.0 after each cycle to regenerate the chip surface. The regeneration step removed any captured scAb whilst leaving the capture antibody intact and able to repeat the capture for the next cycle. Following three start-up cycles increasing concentrations (0.15625 nM-100 nM) of the target to be tested were added to the chip surface after the desired scAb capture. The target was added for a 120 s association period and 420 s dissociation period followed by another regeneration, 30 s injection of glycine buffer pH 2.0 in between each cycle.
(§4) The single cycle kinetics protocol was similar and utilised the same level of scAb capture. Three start-up cycles were used followed by 5 increasing concentrations of the analyte (6.25 nM-100 nM) for an association period of 120 s followed by a dissociation period of 420 s for each concentration. In single cycle kinetics the regeneration step was performed only after the final analyte concentration was added. Binding responses were analysed in Biacore X100 evaluation software and data fitted to a 1:1 binding model to obtain kinetic and affinity characterisation.
(In general: Surface plasmon resonance follows binding to a sensor surface in real time, without labels.)

Another assay has as its target hT40 (Homo sapiens, UniProt P10636). As to the kind of experiment: Biacore X100 SPR, scAb captured via anti-HuCk, hT40 as analyte. It counts as binding. Particulars: scAb, Table 23, T441 (hT40). On the procedure: as §1, with “The chip surface has a dextran matrix derivatised with carboxyl groups, which after activation with N-hydroxysuccinimide (NHS) and 1-ethyl-3-(3-dimethylaminopropyl) carbodiimide (EDC), form reactive succinimide esters which allows the covalent capturing of the ligand via any available primary amine groups (e.g. Lysine) on the ligand (in this case anti-HuCk antibody).” left out
as §2
as §3, with “The regeneration step removed any captured scAb whilst leaving the capture antibody intact and able to repeat the capture for the next cycle.” left out
as §4

The next assay has as its target htau40 (Homo sapiens, UniProt P10636). Description: Biacore X100 SPR of anti-tau mAbs on immobilised htau40. It counts as binding. Particulars: mAb; for ka / kd: Table 27, immobilised hT40. On the procedure: For anti-tau mAb SPR measurements, htau40 was conjugated to the surface of a CM5 sensor chip using amine coupling as explained previously. Briefly, 2 μg/mL htau40 in 10 mM Sodium acetate buffer (pH 4.0) was passed over the activated chip surface (EDC/NHS) in flow cell 2 for a period for 45 s followed by blocking with 1 M ethanolamine-HCl PH 8.5. Flow cell 1 was set up as reference control and blocked simultaneously. Final immobilisation level of htau40 (Rmax) was approximately 250 RU. Following a minimum of three start-up cycles, increasing concentrations (0.78 nM-25 nM) of the mAb in HBS-EP+ buffer was added at a rate of 30 μL/min to the chip. The mAb was added for a 120 s association period and 600 s dissociation period followed by a regeneration cycle of 30 s injection of glycine buffer pH 1.5 in between each cycle. Binding responses were analysed in Biacore X100 evaluation software and data fitted to a 1:1 binding model to obtain kinetic and affinity characterisation.
For anti-tau mAb SPR measurements (Biacore X100™) and epitope mapping, the same methodologies described above (see Example 16) were followed. Kinetic rates and equilibrium binding constants of additional anti-tau mAbs and the regions recognised on hT40 are given in the Table 25 below

Another assay has as its system human tau and mouse tau. As to the kind of experiment: Western blot of WT, L66+/+ and L1+/+ mouse brain homogenates. The assay is classed as binding. Particulars: 20 μg protein, 5-month-old mice. Here is the method: Protein equivalent to 20 μg from each brain extract was separated using 4-20% bis-tris gels and run in 1×MES buffer.
A band is detected in each sample (WT, L66^+/+ and L1^+/+) with an apparent molecular weight of approximately 55 kDa. This band most likely corresponds to endogenous mouse tau which is of a similar size. In the L66^+/+ samples, a second band running at approximately 68 kDa is also detected. The presence of numerous other bands indicates proteolytic truncation of tau within brain homogenates.

Assay [1] relates to hT40, dGA, dGAE and truncated tau fragments/peptides. As to the kind of experiment: Binding ELISA for epitope mapping with truncated tau proteins and biotinylated 13mer peptides. On the set-up: species or system human. Particulars: direct binding ELISA. Here is the method:
A series of binding ELISA was performed using various truncated versions of the tau protein and 13mer peptide libraries spanning the entire hT40 molecule for mapping the epitopes of anti-tau scAbs (Full list of protein antigens used is given in Table 14). In general, ELISA plates were coated with 1 μg/ml hT40 or dGA or dGAE or other truncated versions of the protein and in the case of biotinylated peptides, plates were coated with 5 μg/ml Streptavidin followed by 1 μg/ml biotinylated peptide. The plates were blocked with 2% MPBS and scAb samples added at desired starting concentrations and double diluted across the plate. Binding was detected using anti-Human C Kappa HRP conjugated secondary antibody and the resulting immunoreaction was developed and absorbance values measured as described above.
Similarly, dGA binding ‘NS’, ‘S’ and ‘M’ group scAbs were subjected to further antigen binding ELISA using shorter tau proteins and biotinylated 13mer peptides as shown below (FIGS. 10A-F) and (FIGS. 11A-R).
For anti-tau mAb SPR measurements (Biacore X100™) and epitope mapping, the same methodologies described above (see Example 16) were followed.
For orientation: In an ELISA, binding on a coated surface is turned into a signal by an enzyme label.

Chain of htau40 (P10636 1-441 isoform P10636-8): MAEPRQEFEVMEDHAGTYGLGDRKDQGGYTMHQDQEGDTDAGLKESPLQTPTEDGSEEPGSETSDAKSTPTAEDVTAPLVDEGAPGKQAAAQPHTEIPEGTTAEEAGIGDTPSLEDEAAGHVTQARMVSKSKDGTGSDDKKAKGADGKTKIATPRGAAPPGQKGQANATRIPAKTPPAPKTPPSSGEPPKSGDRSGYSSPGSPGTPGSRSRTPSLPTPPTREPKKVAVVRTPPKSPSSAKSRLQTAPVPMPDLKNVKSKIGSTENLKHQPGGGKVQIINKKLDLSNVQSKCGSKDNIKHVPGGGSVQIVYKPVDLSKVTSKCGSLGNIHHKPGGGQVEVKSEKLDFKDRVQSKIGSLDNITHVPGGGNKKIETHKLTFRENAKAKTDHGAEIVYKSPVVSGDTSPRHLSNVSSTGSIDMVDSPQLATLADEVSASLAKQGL
Chain of hT40 (P10636 1-441 isoform P10636-8): as above

B1: NS2A1: anti-tau clone, SEQ ID NO: 220 (protein)
scFv: QVQLQESGPSLVKPSQTLSLTCTVSGFSLSTNSVGWVRQAPGKAPEWVAGIDTDGEEGFNPVLKSRLSITRDTSKSQVSLSLSNVTSEDTAVYYCGRSYRTDGLAYGYVQAIDYWGPGLLVTISSEGKSSGASGESKVDDQSVLTQPSSVSGSPGQTVSITCSGSYIGSSGVGWFQQLPGSGLRTIIVASDGRPSGVPDGFSMSKSGNTATLTISSLQAEDEADYFCGSSDRTQYTGLFGSGTRLTVLG
modifications: NS2A1 amino acid sequence
On to B1, for which the “Kd” value with dGA came to 0.00102 s⁻¹; with htau40 (Table 27, read-out: kD (M) for hT40 binding), 1e-08 M. In addition, the ka with hT40 stood at 252100 M⁻¹ s⁻¹; in the assay with htau40, 893700 M⁻¹ s⁻¹. The values for the kd in the assay with hT40 and with htau40 were 0.0007393 s⁻¹ and 0.002621 s⁻¹, respectively.

B2: CC7: anti-tau clone, SEQ ID NO: 365 (protein)
scFv: QVQLQESGPSLVKPSQTLSLTCTVSGFSLTSNAVIWVRQAPGKAPEWVALIDVDGDAAYDPALKSRLSITRDTSKSQVSLSLRSVTTEDTAVYYCARDYGSWGYVSDIDYWGPGLLVTVSSEGKSSGASGESKVDDRVVRTQPSSVSGSLGQRVSITCSGSYITGSSVGWFQQVPGSGLKTVIYDNNDRPSGVPDRFSGSKSGDTATLTISSLQAEDEADYYCASYDTSNIGLFGSGTRLTVLG
modifications: CC7 amino acid sequence
Turning to B2, in the assay with hT40, the ka stood at 295700 M⁻¹ s⁻¹ and the kd is 0.0003659 s⁻¹. Also, the “bands detected in western blot of WT, L66+/+ and L1+/+ brain homogenates” value with human tau and mouse tau was “show specificity for human tau”. Besides, in the assay with htau40, the ka amounted to 4.576e+06 M⁻¹ s⁻¹ and the kd came out at 0.03164 s⁻¹.

B3: E2B7: anti-tau clone, SEQ ID NO: 254 (protein)
scFv: QVQLQESGPSLVKPSQTLSLTCTVSGFSLTSWGVAWVRQAPGKALEWLGTMRSGGGTEYNPALKSRLSITRDTSKSQVSLSLSSVTTEDMAMYYCARGYLSGIHYAWGRGLLVSVSSEGKSSGASGESKVDDQAVLTQLSSVSGSLGQRVSITCSGSSSNVGDGDYVGWFQQLPGSAPKLLIYSARNRASGVPDRFSGSRSGNTATLTITSLQAEDEADYYCASIDTSRSHIFGSGTRLTVLG
modifications: E2B7 amino acid sequence
On to B3, for which, in assay [1], the “cross-reactivity of 'E' group scAbs using hT40, dGA and dGAE antigens” value was “specific dGAE binding”.
